Where two headings read alike, the source gives them in different places.
Experiments:
Assay type in all cases: binding
SARS-CoV-2 gRNA = conditions: […]; LC-MS/MS; Probe I sample (first 199 lines of Table 2)
HCoV-OC43 gRNA and sgRNA = conditions: for target (unweighted spectral count, OC43 Probe II capture): 36 hpi, type n_36_v, FDR<10%; for target (unweighted spectral count, OC43 Probe II capture) / target (unweighted spectral count): tested against no-probe control; for target (unweighted spectral count): OC43 Probe II, infected cells; for target (unweighted spectral count, OC43 Probe II) / background (unweighted spectral count, no-probe control): type n_48_v, 48 hpi; for target (unweighted spectral count, OC43 Probe II): OC43 Probe II capture on infected cells; for background (unweighted spectral count, no-probe control): no-probe control on infected cells
[1] = test system: SARS-CoV-2 gRNA and sgRNAs; conditions: for target (unweighted spectral count in RNP capture): Probe II capture, LC-MS/MS LFQ
gRNA of HCoV-OC43 = conditions: for target (spectral count, OC43 Probe I RNP capture) / background (spectral count, no-probe control): type n_48_v: 48 hours post-infection; for target (spectral count, OC43 Probe I RNP capture): infected cells, unweighted spectral count; for background (spectral count, no-probe control): no-probe control on infected cells

B1: HNRNPA1 (protein, UniProt P09651 1-372, looked up)
Heterogeneous nuclear …: MSKSESPKEPEQLRKLFIGGLSFETTDESLRSHFEQWGTLTDCVVMRDPNTKRSRGFGFVTYATVEEVDAAMNARPHKVDGRVVEPKRAVSREDSQRPGAHLTVKKIFVGGIKEDTEEHHLRDYFEQYGKIEVIEIMTDRGSGKKRGFAFVTFDDHDSVDKIVIQKYHTVNGHNCEVRKALSKQEMASASSSQRGRSGSGNFGGGRGGGFGGNDNFGRGGNFSGRGGFGGSRGGGGYGGSGDGYNGFGNDGGYGGGGPGYSGGSRGYGSGGQGYGNQGSGYGGSGSYDSYNNGGGGGFGGGSGSNFGGGGSYNDFGNYNNQSSNFGPMKGGNFGGRSSGPYGGGGQYFAKPRNQGGYGGSSSSSSYGSGRRF
target (unweighted spectral count of the protein in the RNP capture) (SARS-CoV-2 gRNA): 97
target (unweighted spectral count, OC43 Probe II capture) (HCoV-OC43 gRNA and sgRNA): 39
target (unweighted spectral count) (HCoV-OC43 gRNA and sgRNA; 12 hpi (type n_12_v)): 24
target (unweighted spectral count) (HCoV-OC43 gRNA and sgRNA; 24 hpi (type n_24_v)): 31
target (unweighted spectral count, OC43 Probe II) (HCoV-OC43 gRNA and sgRNA): 53
background (unweighted spectral count, no-probe control) (HCoV-OC43 gRNA and sgRNA): 7
target (unweighted spectral count in RNP capture) [1]: 74
target (spectral count, OC43 Probe I RNP capture) (gRNA of HCoV-OC43): 82
background (spectral count, no-probe control) (gRNA of HCoV-OC43): 7

B2: PUM1: host protein, UniProt Q14671 (protein, UniProt Q14671 2-1186, looked up)
Pumilio homolog 1: SVACVLKRKAVLWQDSFSPHLKHHPQEPANPNMPVVLTSGTGSQAQPQPAANQALAAGTHSSPVPGSIGVAGRSQDDAMVDYFFQRQHGEQLGGGGSGGGGYNNSKHRWPTGDNIHAEHQVRSMDELNHDFQALALEGRAMGEQLLPGKKFWETDESSKDGPKGIFLGDQWRDSAWGTSDHSVSQPIMVQRRPGQSFHVNSEVNSVLSPRSESGGLGVSMVEYVLSSSPGDSCLRKGGFGPRDADSDENDKGEKKNKGTFDGDKLGDLKEEGDVMDKTNGLPVQNGIDADVKDFSRTPGNCQNSANEVDLLGPNQNGSEGLAQLTSTNGAKPVEDFSNMESQSVPLDPMEHVGMEPLQFDYSGTQVPVDSAAATVGLFDYNSQQQLFQRPNALAVQQLTAAQQQQYALAAAHQPHIGLAPAAFVPNPYIISAAPPGTDPYTAGLAAAATLGPAVVPHQYYGVTPWGVYPASLFQQQAAAAAAATNSANQQTTPQAQQGQQQVLRGGASQRPLTPNQNQQGQQTDPLVAAAAVNSALAFGQGLAAGMPGYPVLAPAAYYDQTGALVVNAGARNGLGAPVRLVAPAPVIISSSAAQAAVAAAAASANGAAGGLAGTTNGPFRPLGTQQPQPQPQQQPNNNLASSSFYGNNSLNSNSQSSSLFSQGSAQPANTSLGFGSSSSLGATLGSALGGFGTAVANSNTGSGSRRDSLTGSSDLYKRTSSSLTPIGHSFYNGLSFSSSPGPVGMPLPSQGPGHSQTPPPSLSSHGSSSSLNLGGLTNGSGRYISAAPGAEAKYRSASSASSLFSPSSTLFSSSRLRYGMSDVMPSGRSRLLEDFRNNRYPNLQLREIAGHIMEFSQDQHGSRFIQLKLERATPAERQLVFNEILQAAYQLMVDVFGNYVIQKFFEFGSLEQKLALAERIRGHVLSLALQMYGCRVIQKALEFIPSDQQNEMVRELDGHVLKCVKDQNGNHVVQKCIECVQPQSLQFIIDAFKGQVFALSTHPYGCRVIQRILEHCLPDQTLPILEELHQHTEQLVQDQYGNYVIQHVLEHGRPEDKSKIVAEIRGNVLVLSQHKFASNVVEKCVTHASRTERAVLIDEVCTMNDGPHSALYTMMKDQYANYVVQKMIDVAEPGQRKIVMHKIRPHIATLRKYTYGKHILAKLEKYYMKNGVDLGPICGPPNGII
target (unweighted spectral count of the protein in the RNP capture) (SARS-CoV-2 gRNA): 6
target (unweighted spectral count, OC43 Probe II capture) (HCoV-OC43 gRNA and sgRNA): 6
target (unweighted spectral count, OC43 Probe II) (HCoV-OC43 gRNA and sgRNA): 6
background (unweighted spectral count, no-probe control) (HCoV-OC43 gRNA and sgRNA): 1
target (unweighted spectral count in RNP capture) [1]: 20
background (unweighted spectral count in control) ([1]; no-probe control pull-down, used as background for Probe II): 1
target (spectral count) (gRNA of HCoV-OC43; type g_36_m, HCoV-OC43-infected HCT-8 cells, 36 hpi, Probe I): 11
background (spectral count) (gRNA of HCoV-OC43; type g_36_m, uninfected-probe control, 36 hpi, Probe I): 1
target (spectral count, OC43 Probe I RNP capture) (gRNA of HCoV-OC43): 6
background (spectral count, no-probe control) (gRNA of HCoV-OC43): 1

Source: patent publication US20230407373A1 (priority 2020, published 2023)
